Data published in US20220025344A1 (Novartis, published 2022).
“And” between values parts separate entries of the source, which are not always exact repeats. Equal entries are not always repeated. Values belong to the molecule of their own block, whether it stands above or below them.

T1: Co-expressed human LPL/soluble GPIHBP1 complex (human, UniProt P06858 28-475; Q8IV16 21-151, biotin at the C-terminal end of GPIHBP1 in the ELISA and SPR assays)
T1 construct: Non-covalent 1:1 complex; also called LPL/GPIHBP1 complex; LPL-GPIHBP1 complex
T1 sequence 1: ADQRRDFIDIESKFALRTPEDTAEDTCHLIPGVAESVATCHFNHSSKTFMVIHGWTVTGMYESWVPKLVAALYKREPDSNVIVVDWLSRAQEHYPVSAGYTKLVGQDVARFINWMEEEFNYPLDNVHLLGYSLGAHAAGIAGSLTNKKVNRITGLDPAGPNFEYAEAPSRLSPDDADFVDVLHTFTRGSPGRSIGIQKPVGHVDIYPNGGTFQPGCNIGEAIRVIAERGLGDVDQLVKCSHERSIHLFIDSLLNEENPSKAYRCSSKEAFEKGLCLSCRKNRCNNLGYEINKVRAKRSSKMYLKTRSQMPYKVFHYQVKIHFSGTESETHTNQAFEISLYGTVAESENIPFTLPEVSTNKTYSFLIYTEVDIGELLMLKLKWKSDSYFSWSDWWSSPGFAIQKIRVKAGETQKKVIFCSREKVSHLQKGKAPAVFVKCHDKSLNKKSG
T1 sequence 2: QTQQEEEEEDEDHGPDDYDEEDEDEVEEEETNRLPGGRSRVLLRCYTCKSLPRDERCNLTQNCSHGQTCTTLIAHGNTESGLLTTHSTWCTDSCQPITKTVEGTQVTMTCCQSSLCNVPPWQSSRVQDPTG

T2: Recombinant human LPL (mature human lipoprotein lipase, amino acids 28-475) (human, UniProt P06858 28-475)
T2 sequence: T1 sequence 1

T3: hANGPTL4-myc (human, UniProt Q9BY76)
T3 construct: residues 26-406; It is a different tag version from m7; also called ANGPTL4(26-406)-6HIS-myc
T3 sequence (single chain, looked up): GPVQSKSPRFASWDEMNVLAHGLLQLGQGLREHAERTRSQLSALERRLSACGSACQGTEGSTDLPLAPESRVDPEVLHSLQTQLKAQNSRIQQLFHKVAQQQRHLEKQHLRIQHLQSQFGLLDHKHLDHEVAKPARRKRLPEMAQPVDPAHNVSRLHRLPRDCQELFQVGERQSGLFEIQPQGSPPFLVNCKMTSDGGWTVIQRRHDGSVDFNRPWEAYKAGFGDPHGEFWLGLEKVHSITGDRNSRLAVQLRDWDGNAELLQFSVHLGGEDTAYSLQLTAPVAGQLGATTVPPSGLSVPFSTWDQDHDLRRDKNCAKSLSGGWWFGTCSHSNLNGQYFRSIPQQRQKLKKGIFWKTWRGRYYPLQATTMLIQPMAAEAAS

B1: Human soluble GPIHBP1(21-151)-FLAG-HIS6-Avi (receptor)
chain: QTQQEEEEEDEDHGPDDYDEEDEDEVEEEETNRLPGGRSRVLLRCYTCKSLPRDERCNLTQNCSHGQTCTTLIAHGNTESGLLTTHSTWCTDSCQPITKTVEGTQVTMTCCQSSLCNVPPWQSSRVQDPTGDYKDDDDKHHHHHHGGGLNDIFEAQKIEWHE
modifications: biotin on the C-terminal AviTag (BirA, site-specific) where used for immobilisation on streptavidin
notes: also called solGPIHBP1 with C-terminal FHA tag; C-terminally biotinylated GPIHBP1
B2: Human ANGPTL4(26-406)-FLAG-6HIS-Avi (ligand)
chain: GPVQSKSPRFASWDEMNVLAHGLLQLGQGLREHAERTRSQLSALERRLSACGSACQGTEGSTDLPLAPESRVDPEVLHSLQTQLKAQNSRIQQLFHKVAQQQRHLEKQHLRIQHLQSQFGLLDHKHLDHEVAKPARRKRLPEMAQPVDPAHNVSRLHRLPRDCQELFQVGERQSGLFEIQPQGSPPFLVNCKMTSDGGWTVIQRRHDGSVDFNRPWEAYKAGFGDPHGEFWLGLEKVHSITGDRNSRLAVQLRDWDGNAELLQFSVHLGGEDTAYSLQLTAPVAGQLGATTVPPSGLSVPFSTWDQDHDLRRDKNCAKSLSGGWWFGTCSHSNLNGQYFRSIPQQRQKLKKGIFWKTWRGRYYPLQATTMLIQPMAAEAASDYKDDDDKHHHHHHGGGLNDIFEAQKIEWHE
B3: LPL(28-475)-(G4S)4-hGPIHBP1(21-151)-FLAG-HIS6-Avi (enzyme)
chain: ADQRRDFIDIESKFALRTPEDTAEDTCHLIPGVAESVATCHFNHSSKTFMVIHGWTVTGMYESWVPKLVAALYKREPDSNVIVVDWLSRAQEHYPVSAGYTKLVGQDVARFINWMEEEFNYPLDNVHLLGYSLGAHAAGIAGSLTNKKVNRITGLDPAGPNFEYAEAPSRLSPDDADFVDVLHTFTRGSPGRSIGIQKPVGHVDIYPNGGTFQPGCNIGEAIRVIAERGLGDVDQLVKCSHERSIHLFIDSLLNEENPSKAYRCSSKEAFEKGLCLSCRKNRCNNLGYEINKVRAKRSSKMYLKTRSQMPYKVFHYQVKIHFSGTESETHTNQAFEISLYGTVAESENIPFTLPEVSTNKTYSFLIYTEVDIGELLMLKLKWKSDSYFSWSDWWSSPGFAIQKIRVKAGETQKKVIFCSREKVSHLQKGKAPAVFVKCHDKSLNKKSGGGGGSGGGGSGGGGSGGGGSQTQQEEEEEDEDHGPDDYDEEDEDEVEEEETNRLPGGRSRVLLRCYTCKSLPRDERCNLTQNCSHGQTCTTLIAHGNTESGLLTTHSTWCTDSCQPITKTVEGTQVTMTCCQSSLCNVPPWQSSRVQDPTGDYKDDDDKHHHHHHGGGLNDIFEAQKIEWHE
modifications: biotin on the C-terminal AviTag in the ELISA and SPR assays
notes: also called LPL-GPIHBP1 fusion polypeptide; LPL-GPIHBP1 fusion

Legend:
[1] = target: Co-expressed human LPL/soluble GPIHBP1 complex (human) (UniProt P06858); assay: cell-based or functional assay
[2] = target: Recombinant human LPL (mature human lipoprotein lipase, amino acids 28-475) (human) (UniProt P06858); assay: cell-based or functional assay
[3] = target: T1, Co-expressed human LPL/soluble GPIHBP1 …; assay: TR-FRET dissociation of the LPL/GPIHBP1 complex: free hGPIHBP1-FHA binds the LPL of the complex and competes with the labelled GPIHBP1. FRET ratio falls from about 20000 to about 1000 between log -1 and log 3 (nM). [cont.) D]
[4] = target: T1, Co-expressed human LPL/soluble GPIHBP1 …; assay: cell-based or functional assay
[5] = target: T2, Recombinant human LPL (mature human …); assay: cell-based or functional assay
[6] = target: B3; assay: cell-based or functional assay
[7] = target: T1, Co-expressed human LPL/soluble GPIHBP1 …; assay: TR-FRET dissociation of the LPL/GPIHBP1 complex: ANGPTL4 binds the LPL of the complex and displaces the labelled GPIHBP1. FRET ratio falls from about 20000 to about 1000 between log -1 and log 3 (nM). [cont.) D]
[8] = target: T1, Co-expressed human LPL/soluble GPIHBP1 …; assay: TR-FRET dissociation of the LPL/GPIHBP1 complex (10 nM 6HIS-hLPL-HA-Flag / biotinylated hGPIHBP1-Avi, anti-HA-Tb / streptavidin-D2). ANGPTL4 binds LPL and displaces GPIHBP1. [cont.) C) right graph]
Procedure: The assay for TR-FRET based detection of ANGPTL4 binding to the LPL/GPIHBP1 complex was carried out in 384-well plates (ProxiPlate™ 384-well white, Perkin Elmer, USA) in a final volume of 20 μl. The composition of the assay buffer was 20 mM HEPES pH=7.4, 100 mM NaCl, 10% HI-FBS, 5 mM CaCl₂). The assay procedure was as follows: First 4 μL/well of 5x 6HIS-hLPL-HA-Flag/biotinylated hGPIHBP1-Avi complex (50 nM stock in assay buffer, 10 nM complex final concentration) was added to 8 μL/well buffer. Then 4 μL/well 5x non-biotinylated ANGPTL4(26-406)-Flag-6HIS-Avi (final concentrations of 1 to 1000 nM) was added and incubation was carried out at room temperature for 1 hour. After incubation 4 μL 5× anti-HA-Tb/[…] (Cisbio, diluted in assay buffer to 1.25 nM anti-HA-Tb/50 nM streptavidin-D2 stock concentration) (0.3125 nM anti-HA-Tb/10 nM streptavidin-D2 final concentration) was added and the mixture was incubated at room temperature for 3 hours. Finally the plate was read on an Envision plate reader Ex=320 Em=665 Em=615.

hANGPTL4-myc = target: T3, hANGPTL4-myc; assay: TR-FRET binding assay (anti-HA-Tb / anti-myc-D2). Target taken from paragraph 181 (fusion polypeptide); the methods instead describe a 6HIS-hLPL-HA-Flag/hGPIHBP1-Avi complex at 10 nM. [cont.) C) left graph]
[9] = target: B2; assay: MSD ELISA: 10 nM biotinylated fusion incubated with ANGPTL4 and captured on streptavidin; bound ANGPTL4 detected with an ANGPTL4 Ab
Procedure: LPL-GPIHBP1 complex or LPL-GPIHBP1 fusion (10 nM, site-specifically biotinylated at the C-terminal end of GPIHBP1) were incubated with increasing concentrations of ANGPTL4 (a 12 point 2-fold serial dilution with highest concentration of 100 nM). The reaction mix was then applied onto a streptavidin coated MSD. The presence of LPL and ANGPTL4 was detected using an LPL or ANGPTL4 specific Abs, which were subsequently quantified using sulpho-tagged secondary Ab. To generate a signal, lx MSD read buffer T was added and the plate was developed using a Sector Imager 6000 (Meso Scale Discovery).
First, the co-expressed LPL/GPIHBP1 complex or the LPL-GPIHBP1 fusion polypeptide was immobilized on a streptavidin surface through C-terminally biotinylated GPIHBP1. The proteins were then incubated with ANGPTL4 and changes in bound ANGPTL4 and LPL were monitored with respective high affinity antibodies. A schematic representation of the assay is depicted on top of FIG. 3, panel A. When the complex was incubated with ANGPTL4, displacement of LPL from the co-expressed LPL/GPIHBP1 complex as function of ANGPTL4 concentration was observed. On the other hand, ANGPTL4 was unable to displace LPL from the covalently linked LPL-GPIHBP1 fusion polypeptide (FIG. 3, panel A, left side). Correspondingly, when bound ANGPTL4 was probed, ANGPTL4 was not captured by the co-expressed LPL/GPIHBP1 complex. […]

- IC50 of ANGPTL3 inactivation of LPL enzymatic activity [1]: 0.3 µM
- fold resistance to ANGPTL3 inactivation against LPL alone [1]: > 37 fold
- IC50 of ANGPTL3 inactivation of LPL enzymatic activity [2]: 0.007 µM and 0.008 µM
Molecule: Human ANGPTL3(17-460)-FLAG-HIS6-Avi (from UniProt Q9Y5C1 17-460) (ligand)

Molecule: B1
- IC50 [3]: 0.015 µM

Molecule: B2
- IC50 of ANGPTL4 inactivation of LPL enzymatic activity [4]: 0.019 µM
- fold resistance to ANGPTL4 inactivation against LPL alone [4]: > 6 fold
- IC50 of ANGPTL4 inactivation of LPL enzymatic activity [5]: 0.003 µM
- IC50 of ANGPTL4 inactivation of LPL enzymatic activity [6]: 0.107 µM
- fold increase of the IC50 of ANGPTL4 inactivation against LPL alone [6]: > 35 fold
- fold increase of the IC50 of ANGPTL4 inactivation against the co-expressed LPL/GPIHBP1 complex [6]: > 5 fold
- IC50 [7]: 0.018 µM
- IC50 (read off the curve) [8]: ~0.02 µM

Molecule: B3
- binding result (hANGPTL4-myc): binds
- binding result [9]: binds
